Biological target: Rvs167 (1-265)/161 heterodimer (S. cerevisiae, UniProt P39743 1-265; P25343 1-265)
Experiment: liposome flotation

B1: GST-Cmd1 (natural protein)
chain: not shown
For B1, the “stoichiometry N” value was ~0.25 calmodulin per heterodimer.

— PMC4855880 (Developmental cell, 2016)
